# Target: T1, human plasma kallikrein (human, UniProt P03952 20-390; P03952 391-638)
# T1 construct: two disulfide-linked chains; NP_000883.2; also called pKal; hpKal
# Test: ELISA, biotinylated pKal signal over streptavidin background
# T1 sequence (P03952 20-390 limits assumed, chain 1 of 2): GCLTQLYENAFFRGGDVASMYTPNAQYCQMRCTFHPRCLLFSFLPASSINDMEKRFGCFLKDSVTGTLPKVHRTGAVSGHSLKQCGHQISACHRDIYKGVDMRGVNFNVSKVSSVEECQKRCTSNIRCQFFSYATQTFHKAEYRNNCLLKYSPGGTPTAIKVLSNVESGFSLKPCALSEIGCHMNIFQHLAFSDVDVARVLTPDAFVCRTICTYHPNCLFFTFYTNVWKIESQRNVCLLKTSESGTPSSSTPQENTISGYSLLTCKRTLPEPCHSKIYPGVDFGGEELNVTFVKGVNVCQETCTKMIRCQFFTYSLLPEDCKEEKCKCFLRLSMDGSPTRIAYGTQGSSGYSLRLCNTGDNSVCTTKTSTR
# T1 sequence (P03952 391-638 limits assumed, chain 2 of 2): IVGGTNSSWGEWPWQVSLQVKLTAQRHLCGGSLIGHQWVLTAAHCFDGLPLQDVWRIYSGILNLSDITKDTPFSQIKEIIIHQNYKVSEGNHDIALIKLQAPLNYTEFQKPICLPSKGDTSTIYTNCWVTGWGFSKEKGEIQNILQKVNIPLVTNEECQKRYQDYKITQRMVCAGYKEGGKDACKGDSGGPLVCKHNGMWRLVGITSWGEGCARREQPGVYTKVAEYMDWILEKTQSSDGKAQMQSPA
row,ELISA (T/B),Binder
1,7.1,"M10-G09 (Fab, V domains shown) VH: EVQLLESGGGLVQPGGSLRLSCAASGFTFSQYGMQWVRQAPGKGLEWVSSIRSSGGATRYADSVKGRFTISRDNSKNTLYLQMNSLRAEDTAVYYCARDGYYDSSGYPDYWGQGTLVTVSS VL: DIQMTQSPSSLSASVGDSVTITCRASQSISGYINWYQQKAGKAPKLLIYAASSLQSGVPSRFSGSGSGTHFTLTISSLQPEDFATYYCQQYVSYPFTFGPGTKVDIK"
2,20.8,"M10-A12 (Fab, V domains shown) VH: EVQLLESGGGLVQPGGSLRLSCAASGFTFSLYLMHWVRQAPGKGLEWVSSIYSSGGFTTYADSVKGRFTISRDNSKNTLYLQMNSLRAEDTAVYYCARDTDYGMDVWGQGTTVTVSS VL: DIQMTQSPLSLSAFVGDRVTITCRASRDISVYLNWYQLKSGKAPKLLIYGASSLQSGVPSRFSGSGSGTDFTLTITSLQPEDFATYYCQQSYSIPFTFGGGTKVETK"
3,6.4,"M10-D11 (Fab, V domains shown) VH: EVQLLESGGGLVQPGGSLRLSCAASGFTFSAYPMNWVRQAPGKGLEWVSRISSSGGNTSYADSVKGRFTISRDNSKNTLYLQMNSLRAEDTAVYYCALGYLGYWGQGTLVTVSS VL: not shown"
4,43.2,"M11-E04 (Fab, V domains shown) VH: EVQLLESGGGLVQPGGSLRLSCAASGFTFSMYHMNWVRQAPGKGLEWVSGIVSSGGVTFYADSVKGRFTISRDNSKNTLYLQMNSLRAEDTAVYYCARITTVTTGGAFDIWGQGTMVTVSS VL: DIQMTQSPSSLSASVGDRVTITCRASQSISIYLTWYQHRPGKAPNLLIYGAATLQTGVPSRFSGSGSGTDFTLTIRGLQPEDFATYYCQQTFSLPRTFGQGTKLEIK"
5,41.4,"M11-E05 (Fab, V domains shown) VH: EVQLLESGGGLVQPGGSLRLSCAASGFTFSWYTMGWVRQAPGKGLEWVSWIYFGGLTTYADSVKGRFTISRDNSKNTLYLQMNSLRAEDTAVYYCARLGGPLDAFDIWGQGTMVTVSS VL: DIQMTQSPSSLSASVGDTVTITCRTSQTINNYLNWYQQRPGEAPKVLIYATHTLESGVPSRFSGSGSGTDFTLTIGSLQPEDFATYYCQQSFAFPYTFGQGTKVEIT"
6,4.4,"M9-H03 (Fab, V domains shown) VH: EVQLLESGGGLVQPGGSLRLSCAASGFTFSWYSMGWVRQAPGKGLEWVSYIVPSGGYTMYADSVKGRFTISRDNSKNTLYLQMNSLRAEDTAVYYCARDPGVSYYYYGMDVWGQGTTVTVSS VL: QYELTQAPSVSVAPGQTASITCSGDKLGNRYTSWYQQKPGQSPVLVIFQDNKRPSGIPERFSGSNSGNTATLTISGTQAMDEADYYCQALDSNTYVFGTGTKVTVL"
7,14.1,"M10-B09 (Fab, V domains shown) VH: EVQLLESGGGLVQPGGSLRLSCAASGFTFSWYEMSWVRQAPGKGLEWVSRIWPSGGVTMYADSVKGRFTISRDNSKNTLYLQMNSLRAEDTAVYYCTRTSITTVGMDVWGQGTTVTVSS VL: DIQMTQSPSSLSASVGDGVTITCRASQSISTYLNWYQQRPGKAPKLLIYGASSLQSGVPSRFSGSGSGTDFTLTISSLQREDFATYYCQQSFSTPWTFGQGTRVEIK"
8,11.7,"M11-E01 (Fab, V domains shown) VH: EVQLLESGGGLVQPGGSLRLSCAASGFTFSTYEMYWVRQAPGKGLEWVSGIGSSGGMTMYADSVKGRFTISRDNSKNTLYLQMNSLRAEDTAMYYCAREQPGIAALQFWGQGTLVTVSS VL: not shown"
9,7,"M9-F09 (Fab, V domains shown) VH: EVQLLESGGGLVQPGGSLRLSCAASGFTFSSYPMGWVRQAPGKGLEWVSRISSSGGMTIYADSVKGRFTISRDNSKNTLYLQMNSLRAEDTAVYYCARDDWNVGMDVWGQGTTVTVSS VL: DIQMTQSPSSLSASVGDRVTITCRASQSISSYLNWYQQKPGKAPKLLIYAASSLQSGVPSKFSGSGSGTDYTLTISSLQPEDFATYYCQQTYTTPWTFGQGTKVEIK"
10,10.9,"M9-C08 (Fab, V domains shown) VH: EVQLLESGGGLVQPGGSLRLSCAASGFTFSHYGMVWVRQAPGKGLEWVSYIVPSGGLTYYADSVKGRFTISRDNSKNTLYLQMNSLRAEDTAVYYCARVDYTGDGLGYWGQGTLVTVSS VL: DIQMTQSPSSLSASVGDRVTITCRASQSISIYVNWYQQKPGKAPNLLIFAASSLQRGVPSRFSGSGSGADFTLTISSLQPEDFATYYCQQSFSTPLTFGGGTKVEIK"
11,18.8,"M9-E04 (Fab, V domains shown) VH: EVQLLESGGGLVQPGGSLRLSCAASGFTFSEYDMMWVRQAPGKGLEWVSSIGSSGGMTYYADSVKGRFTISRDNSKNTLYLQMNSLRAEDTAVYYCARDQVAAAAIDYWGQGTLVTVSS VL: DIQMIQSPSSLSASVGDRVTITCRASQSISGYLNWYQQRSGKAPKLLIFAASNLQTGVPSRFSGSGSGTDFTLTINNLQPEDFATYYCQQSHTPPKTFGPGTKVDIK"
12,33.7,"M10-A03 (Fab, V domains shown) VH: EVQLLESGGGLVQPGGSLRLSCAASGFTFSPYPMQWVRQAPGKGLEWVSSISSSGGMTEYADSVKGRFTISRDNSKNTLYLQMNSLRAEDTAVYYCARDDYGGKGGAFDIWGQGTMVTVSS VL: DIQMTQSPSSLSASVGDRVTITCRASQRISFYLNWFQQKPGKAPNLLIYGASSLQSGVPSRFSGSGSGTDFTLTISSLQPKDFGTYYCQQTFSTPNTFGQGTKLEIK"
13,4.8,"M9-G08 (Fab, V domains shown) VH: EVQLLESGGGLVQPGGSLRLSCAASGFTFSYYTMLWVRQAPGKGLEWVSSIYPSGGFTMYADSVKGRFTISRDNSKNTLYLQMNSLRAEDTAVYYCARVDTAMAMIDYWGQGTLVTVSS VL: not shown"
14,5.5,"M9-A08 (Fab, V domains shown) VH: EVQLLESGGGLVQPGGSLRLSCAASGFTFSAYEMWWVRQAPGKGLEWVSYIGSSGGSTSYADSVKGRFTISRDNSKNTLYLQMNSLRAEDTAVYYCTGGNSSSFDAFDIWGQGTMVTVSS VL: DIQMTQSPSSLSASVGDRVTVTCRASQRISTYLNWYQQKPGKAPKLLISGASSLQSGVPSRFSGSGSGTDFTLTISSLQPDDFATYYCQQSYNTPRTFGQGTKVEIR"
15,4.8,"M10-F09 (Fab, V domains shown) VH: EVQLLESGGGLVQPGGSLRLSCAASGFTFSNYDMMWVRQAPGKGLEWVSYISPSGGFTRYADSVKGRFTISRDNSKNTLYLQMNSLRAEDTATYYCAKDIYYYNWGPSHYFDSWGQGTLVTVSS VL: DIQMTQSPSSLSASVGDRVTITCRASQTIDDDLIWYQQKPGRAPKLLIYAASSLQSGVPSRFSGSGSGTDFTLTITSLQPEDFATYYCQQSYNIPRTFGQGTKLESK"
16,8.4,"M9-F10 (Fab, V domains shown) VH: EVQLLESGGGLVQPGGSLRLSCAASGFTFSDYDMEWVRQAPGKGLEWVSSISPSGGSTIYADSVKGRFTISRDNSKNTLYLQMNSLRAEDTAVYYCARQGLLTAFDIWGQGTMVTVSS VL: DIQMTQSPSSLSASVGDRVTITCRASQSINTYLNWYQQKPGKAPKVLIHAASTLESGVPSRFSGSGSGTDFTLTISSLQPEDFATYYCQQSYSTPYTFGQGTKLEVR"
17,3.5,"M9-H02 (Fab, V domains shown) VH: EVQLLESGGGLVQPGGSLRLSCAASGFTFSAYMMIWVRQAPGKGLEWVSVIYPSGGVTMYADSVKGRFTISRDNSKNTLYLQMNSLRAEDTAVYYCARGTVGASDAFDIWGQGTMVTVSS VL: DIQMTQSPSSLSASVGDRVIITCRASRSIATYLNWYQQKPGKAPNLLIFGASTLQSGVPSRFSGSGSGTDFTLTISDLQPEDFATYYCQQSFSDPYTFGQGTNLEMK"
18,16.1,"M9-H04 (Fab, V domains shown) VH: EVQLLESGGGLVQPGGSLRLSCAASGFTFSAYTMWWVRQAPGKGLEWVSSIWPSGGSTFYADSVKGRFTISRDNSKNTLYLQMNSLRAEDTAVYYCARTYDSSAGEVDYWGQGTLVTVSS VL: not shown"
19,32.8,"M10-E06 (Fab, V domains shown) VH: EVQLLESGGGLVQPGGSLRLSCAASGFTFSLYRMFWVRQAPGKGLEWVSSIWSSGGPTMYADSVKGRFTISRDNSKNTLYLQMNSLRAEDTAVYYCAREYPSTYYFDYWGQGTLVTVSS VL: DIQMTQSPSSLSASVGDRVTITCRASQSISTYLNWYQQKPGKAPKLLIYGASSLQSGVPSRFSGSGSGTDFTLTISSLQPEDFTIYYCQQSYSDPYTFGQGTKLDIK"
20,7.8,"M9-C10 (Fab, V domains shown) VH: EVQLLESGGGLVQPGGSLRLSCAASGFTFSLYPMQWVRQAPGKGLEWVSSIGSSGGMTFYADSVKGRFTISRDNSKNTLYLQMNSLRAEDTAVYYCTREVGAAGFAFDIWGQGTMVTVSS VL: DIQMTQSPSSLSASVGDRVTITCRASQGISSYLNWYQQKPGNAPNLLIYGASSLQSGVPSRFSGSGSGTDFTLTISSLQPEDFATYYCQESYSTLFTFGPGTTVEIK"
21,35.9,"M9-D08 (Fab, V domains shown) VH: EVQLLESGGGLVQPGGSLRLSCAASGFTFSWYKMMWVRQAPGKGLEWVSSIYPSGGWTNYADSVKGRFTISRDNSKNTLYLQMNSLRAEDTAVYYCTRGSPWGDDAFDIWGQGTMVTVSS VL: DIQMTQSPSSLSASVGDRVTLTCRASRTISFYLNWYQQKAGKAPELLIYGGSSLHSGVPSRFSGSGSGTDFSLTISNLQPEDIAVYYCQQSFSSPWTFGQGTKVEIK"
22,5.3,"M10-C11 (Fab, V domains shown) VH: EVQLLESGGGLVQPGGSLRLSCAASGFTFSMYPMMWVRQAPGKGLEWVSYISPSGGMTDYADSVKGRFTISRDNSKNTLYLQMNSLRAEDMAVYYCARVAGSSDAFDIWGQGTMVTVSS VL: DIQMTQSPSSLSASVGDRVTITCRASQSISIYLNWYQQKPEKAPKLLIFAASTLQSGVPSRFSGSGSGTDFTLTISNLQPEDFATYYCQQSHSIPPTFGLGTKVEVK"
23,10.9,"M9-F08 (Fab, V domains shown) VH: EVQLLESGGGLVQPGGSLRLSCAASGFTFSPYAMTWVRQAPGKGLEWVSVIYPSGGFTDYADSVKGRFTISRDNSKNTLYLQMNSLRAEDTAMYYCARASGSYLDAFDIWGQGTMVTVSS VL: not shown"
24,25,"M11-A10 (Fab, V domains shown) VH: EVQLLESGGGLVQPGGSLRLSCAASGFTFSNYWMMWVRQAPGKGLEWVSGIGSSGGFTSYADSVKGRFTISRDNSKNTLYLQMNSLRAEDTAVYYCAKGSYSDYGVFESWGQGTLVTVSS VL: DIQMTQSPSSLSASVGDRVAITCRASQSIDTYLNWYQQKPGKAPKLLIYDASNLEIGVPSRFSGSGSGTDFTFIINSLQPEDVATYYCQHYLYAPYSFGQGTKLEIK"
